T1: mouse CLDN18.2 (mouse, UniProt P56857 10-264)
T1 construct: over-expressed on HEK293T cells by lentivirus; also called mCLDN18.2; murine CLDN18.2
T1 chain: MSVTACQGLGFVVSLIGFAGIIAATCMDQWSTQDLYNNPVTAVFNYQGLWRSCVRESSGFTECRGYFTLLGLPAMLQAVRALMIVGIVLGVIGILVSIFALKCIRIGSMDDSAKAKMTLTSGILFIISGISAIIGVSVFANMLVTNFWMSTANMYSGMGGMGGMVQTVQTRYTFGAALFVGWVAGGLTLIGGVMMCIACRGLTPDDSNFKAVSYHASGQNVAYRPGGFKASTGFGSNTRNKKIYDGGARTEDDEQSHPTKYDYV

B1: 5F9-chIgG1 (antibody, V domains shown)
VH: QVQLQQSGAELVKPGASVKLSCKASGYTFTSYWMHWVKQRPGQGLEWIGMIHPNSVSTNYNEKFKSKATLTVDKSSSTAYMQLSSLTSEDSAVYYCAVYFDYWGQGTTLTVSS
VL: DIQVTQSPSSLSASLGERVSLTCRASQDIGSSLNWLQQEPDGTIKRLIYASSSLNSGVPKRFSVSRSGSDYSLTISSLESEDFVDYYCLQYATSPPTFGGGTKLEIKR
notes: human-mouse chimeric antibody, human IgG1/kappa constant regions
B2: 9F3-chIgG1 (antibody, V domains shown)
VH: EVRLQQSGPELVKPGASVKIPCKASGYKFTDYNMDWVKQSHGKSLEWIGEINPNNGGTIYNQKFKGKATLTVDKSSSTAYMELRSLTSEDTAVYYCARIYYGNSFAYWGQGTLVTVSS
VL: DIVMTQSPSSLTVTAGEKVTMSCKSSQSLLNSGNLKNYLTWYQQKPGQPPKLLIYWASTRESGVPDRFTGSGSGTDFTLTISSVQAEDLAVYYCQNDYFYPLTFGAGTKLEIKR
notes: as for B1
B3: 10B11-chIgG1 (antibody, V domains shown)
VH: QVQMKESGAELVKPGASVKISCKASGYAFSTYWMDWVKQRPGKGLEWIGQIYPGNGDTNYNGKFKGKATLTADKSSSTADMQLSSLTSEDSAVYFCARLGYGNSFTYWGQGTLVTVSA
VL: B2 VL with V3Q, M4V, L35Q, S73F, D97A, L102F, A106S
notes: as for B1
B4: 27B5-chIgG1 (antibody, V domains shown)
VH: QVQLQQPGTELVKPGASVKLSCKASGYTFTSYWMHWVKQRPGQGLEWIGNIHPSNGGSNHNEKFKSKATLTVDKSSSTAYMQLSSLTSEDSAVYYCAPIYYGNSLAYWGHGTLVTVSA
VL: B2 VL with I2V, L35Q, I54L, D97S, L102F, A106S
notes: as for B1
B5: 37B1-chIgG1 (antibody, V domains shown)
VH: EVRLQQSGPELVKPGASVKMSCKASGYSFTDYNMHWVKQSHGKSPEWVGYINPNKGGTGYNQKFKGKATLTVNKSSSTANMELRSLTSEDSAVYYCARIWYGNSFAYWGQGTLVTVSA
VL: B2 VL with I2V, L35Q, Y93F, L102F, A106S
notes: as for B1
B6: 10B11 (antibody, V domains shown)
VH: B3 VH
VL: DIQVTQSPSSLTVTAGEKVTMSCKSSQSLLNSGNQKNYLTWYQQKPGQPPKLLIYWASTRESGVPDRFTGSGFGTDFTLTISSVQAEDLAVYYCQNAYFYPFTFGSGTKLEIK
notes: murine monoclonal antibody purified from hybridoma culture supernatant
B7: 44A8 (antibody, V domains shown)
VH: EVRLQQSGPELVKPGASVKMSCKASGYTFTDYNMHWVKQSHGKSLEWIGYINPKNGGIRYNQKFTGKATLTVNKSSSTAYMELRSLTSEDSAVYYCARGGYYGNTLDNWGQGTSVTVSS
VL: B6 VL with Q3V, V4M, V13L, R60S, F73S, V91I, F102W, S106G
notes: as for B6
B8: 27B5 (antibody, V domains shown)
VH: B4 VH
VL: B6 VL with I2V, Q3V, V4M, I54L, F73S, A97S
notes: as for B6
B9: 37B1 (antibody, V domains shown)
VH: B5 VH
VL: B6 VL with I2V, Q3V, V4M, F73S, Y93F, A97D
notes: as for B6
B10: 44F7 (antibody, V domains shown)
VH: QVQLQQSGAELVRPGASVKMSCKASGYTFTSYNMHWVKQAPRQGLEWIGTIYPGNGDTSYNQKFKGKATLTVDKSSSTAYMQLSSLTSEDSAVYFCARGGYYGNSLDYWGQGTTLTVSS
VL: B6 VL with V4M, F73S, F99Y
notes: as for B6
B11: 9F3 (antibody, V domains shown)
VH: B2 VH
VL: B6 VL with Q3V, V4M, Q35L, F73S, A97D, F102L, S106A
notes: as for B6
B12: 2F12 (antibody, V domains shown)
VH: EVQLVESGGGLVKPGGSLKLSCAASGFTFSDYGIHWVRQAPEKGLEWVAYISSGSSTIYYADTVKGRFTISRDNAKNTLFLQMTSLRSEDTAIYYCAKWDRGNCFDYWGQGTTLTVSS
VL: DIVLTQSPSSLTVTAGEKVTMSCKSSQSLLNSGNQKKYLTWYQQKVGQPPKLLIYWASIRECGVPDRFTGSGSGTDFILTISSVQAEDLAVYYCQNAYSYPLTFGAGTKLELK
notes: as for B6
B13: 1D10-chIgG1 (antibody, V domains shown)
VH: B1 VH with S7P, H52Y, V56G, T58I, S66N, Y95F, A97S
VL: B1 VL with V4G, S51T, N55D, T93S

Changes are numbered by the printed parent chain.

One experiment deals with T2, human CLDN18.2 (human).
T2 construct: over-expressed on HEK293T or OCUM-1 cells by lentivirus; KATO-III and NUGC4 gastric cancer cells express it naturally; also called hCLDN18.2; hCLDNA18.2
Nature of the experiment: imaging cytometry (% fluorescent cells), HEK293T-hCLDN18.2 cells. As for the experimental part:
(§1) 10,000 cells were plated in 100 μL of DMEM containing 10% FBS per well in a flat-bottomed 96-well plate. After the cells adhered or were settled to the bottom of the wells overnight, the supernatant was removed on the next day. 3-Fold gradient dilution of antibody was performed by diluting 1/3 of the total volume (i.e., 100 μL) in 200 μL of DMEM. 100 μL of the diluted antibody (the supernatants of fused clones or subclones was used in the screening) was added to each well of the cell plate, 100 μL of DMEM was added to the corresponding negative control well, and incubation was carried out for 1 hour at room temperature. After removing the supernatant, 100 μL of secondary antibody (5 μg/mL, diluted in DMEM) was added to each well, and incubated at room temperature for 0.5 hours. The supernatant was removed after staining, followed by washing with PBS once. 100 μL of PBS was added to each well, and then reading was carried out on the cytometer.
A full-field scanning cytometer (Nexcelom, Celigo® Image Cytometer) was used to measure the readings of the experimental plate. During the measurement, high-speed scanning imaging of the cells in the well was simultaneously performed in the green fluorescent channel corresponding to the secondary antibody and in the bright field channel. The cells that bound the antibody were counted in the image obtained from the green fluorescent channel under the parameters set in accordance with the morphology and fluorescence intensity of the fluorescently labeled cells, and the adhered cells were counted in the image obtained from the bright field channel under the parameters set in accordance with the morphology of the cells. […] The data analysis was performed using GraphPad.
Molecule B1 came in with an EC50 of 0.283 µg/mL.
As to B2, the EC50 was 0.104 µg/mL.
Same read-out and setting: the same measure for B3: 0.03 µg/mL; for B4: 0.108 µg/mL.
B5 came in with an EC50 of 0.031 µg/mL.

Another experiment has as its target T1, mouse CLDN18.2. Briefly: imaging cytometry (% fluorescent cells), HEK293-mCLDN18.2 cells.
Description: (§2) HEK293T-hCLDN18.2 and OCUM-1-hCLDN18.2 expressing human CLDN18.2 (hCLDN18.2), or HEK293T-mCLDN18.2 expressing mouse CLDN18.2 (mCLDN18.2) and the corresponding negative control cell line HEK293T were used; or HEK293T-hCLDN18.1 and CHOS-hCLDN18.1 expressing human CLDN18.1 (hCLDN18.1) were used. DyLight488 goat anti-mouse IgG (Abcam, Catalog No. ab97015) or DyLight488 goat anti-human IgG (Abcam, Catalog No. ab97003) was used as secondary antibody. Binding curves were generated by using the following method.
as §1
(§3) A full-field scanning cytometer (Nexcelom, Celigo® Image Cytometer) was used to measure the readings of the experimental plate. During the measurement, high-speed scanning imaging of the cells in the well was simultaneously performed in the green fluorescent channel corresponding to the secondary antibody and in the bright field channel. The cells that bound the antibody were counted in the image obtained from the green fluorescent channel under the parameters set in accordance with the morphology and fluorescence intensity of the fluorescently labeled cells, and the adhered cells were counted in the image obtained from the bright field channel under the parameters set in accordance with the morphology of the cells.
Turning to B6, the response was half-maximal at 0.035 µg/mL (EC50).
As for B7, the concentration giving a half-maximal response (EC50) was determined as 0.026 µg/mL.
On the same count and under the same terms, the same measure for B8: 0.033 µg/mL; for B9: 0.032 µg/mL; for B10: 0.026 µg/mL.
Molecule B11 displayed a half-maximal effective concentration (EC50) of 0.043 µg/mL.
B12 had a 50% effective concentration (EC50) of 0.036 µg/mL.

A further experiment deals with T2, human CLDN18.2. Nature of the experiment: imaging cytometry (% fluorescent cells), HEK293-hCLDN18.2 cells.
Description: as §2, §1, §3
Turning to B6, the concentration for a half-maximal effect (EC50) was found to be 0.038 µg/mL.
On the same count and under the same terms, the result for B7 reads 0.034 µg/mL; that for B8, 0.041 µg/mL; that for B9, 0.04 µg/mL.
In turn, B10 yielded an EC50 of 0.028 µg/mL. The EC50 values of the last two molecules are within 1.5-fold of each other.
The same measure, in the same setting: the same measure for B11: 0.053 µg/mL; for B12: 0.041 µg/mL.

For the next experiment, the target named is T2, human CLDN18.2. Briefly: imaging cytometry (% fluorescent cells), OCUM1-hCLDN18.2 cells.
Description: as §2, §1, §3
In the case of B6, a half-maximal response (EC50) required 0.135 µg/mL.
In the case of B7, the 50% effective concentration (EC50) is 0.097 µg/mL.
B8 registered a concentration for a half-maximal effect (EC50) of 0.142 µg/mL.
As for B9, the response was half-maximal at 0.146 µg/mL (EC50).
Molecule B10 registered a concentration giving a half-maximal response (EC50) of 0.092 µg/mL.
On the same count and under the same terms, the same measure for B11: 0.15 µg/mL; for B12: 0.186 µg/mL.

The next experiment concerns the target T2, human CLDN18.2. Nature of the experiment: cell-based or functional assay.
For B1, the “ADCC EC50, HEK293T-hCLDN18.2 target cells, human PBMC effectors” value (“ADCC EC50” below) was found to be 0.0197 µg/mL.
The same measure, in the same setting: the same measure for B2: 0.008 µg/mL.
Turning to B3, the “ADCC EC50” value worked out at 0.001 µg/mL.
B4: the “ADCC EC50” value was 0.0249 µg/mL.
Still for that read-out and setting: the same measure for B5: 0.0126 µg/mL.

In another experiment the target is T3, human CLDN18.1 (human, UniProt P56856 1-261).
T3 construct: over-expressed on HEK293T or CHOS cells by lentivirus; also called hCLDN18.1
T3 sequence (P56856 whole entry): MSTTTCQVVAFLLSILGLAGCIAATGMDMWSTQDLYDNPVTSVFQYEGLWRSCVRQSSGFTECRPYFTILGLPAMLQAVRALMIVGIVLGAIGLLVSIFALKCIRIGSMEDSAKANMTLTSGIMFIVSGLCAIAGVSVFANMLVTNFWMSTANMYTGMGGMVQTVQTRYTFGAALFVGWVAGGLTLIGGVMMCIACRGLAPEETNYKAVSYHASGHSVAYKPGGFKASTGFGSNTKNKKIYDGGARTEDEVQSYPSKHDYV
Nature of the experiment: imaging cytometry, CHOS-hCLDN18.1 cells.
Description: as §2, §1, §3
Turning to B6, the binding result is on record as “no binding”.
For B7, the binding result was “no binding”.
Turning to B8, the binding result is given as “no binding”.
Still for that read-out and setting: the result for B9 reads “no binding”; that for B10, “no binding”; that for B11, “no binding”.
The same measure, in the same setting: the result for B12 reads “no binding”.

For a further experiment, the target named is T2, human CLDN18.2. Briefly: cell-based or functional assay. The source holds these as a separate data set.
Turning to B1, the “Internalization percentage (%), HEK293T-hCLDN18.2 cells, flow cytometry, 10 µg/mL antibody” value turned out to be 9.3%.
On the same count and under the same terms, the same measure for B13: 28.7%; for B4: -2.2%.
In the case of B5, the “Internalization percentage (%), HEK293T-hCLDN18.2 cells, flow cytometry, 10 µg/mL antibody” value is -3.2%.

For the next experiment, the target named is T2, human CLDN18.2. Briefly: cell-based or functional assay. The source holds these as a separate data set.
On to B1, for which the “CDC EC50, HEK293T-hCLDN18.2 target cells, human serum” value (“CDC EC50” for short) stood at 5.25 µg/mL.
Same read-out and setting: the result for B2 reads 1.86 µg/mL.
As for B3, the “CDC EC50” value came to 1.65 µg/mL.
As to B4, the “CDC EC50” value amounted to 5.17 µg/mL.
Regarding B5, the “CDC EC50” value is 1.93 µg/mL.

One may read the EC50 as the midpoint of the concentration-response curve.

Source of the values: patent US20210403552A1 (SHANGHAI GENBASE BIOTECHNOLOGY, published 2021).
